Assay results: publication PMC5488163

Molecular target: free 17K‐apo(a) variant (purified recombinant apolipoprotein(a) with 17 KIV domains) (human)
Test: co-IP

Substance “purified HCVcc, infectious hepatitis C virus particles (JFH1‐CS‐A4‐RLuc‐TM) (complex)” has a percent of HCV RNAs coimmunoprecipitated of 39.9%.
